This is an account of results in article PMC3218054, “Characterisation of the Interaction of the C-Terminus of the Dopamine D2 Receptor with Neuronal Calcium Sensor-1” (PLoS ONE, 2011).

The assay deals with T1, Neuronal calcium sensor-1 (NCS-1), Rattus norvegicus, wild type (Rattus norvegicus, UniProt P62168 1-190).
T1 construct: NCS-1, Rattus norvegicus; cDNA GenBank L27421; sub-cloned into pET-M11; 15N or 15N,13C labelled for NMR; Monomeric by SEC-MALS; also called wild type NCS-1; source: E. coli BL21 (DE3), purified (Phenyl FF hydrophobic column, TEV cleavage, Superdex 75); not shown: His tag, N-terminal, cleaved
In words: other fluorescence titration; intrinsic tryptophan fluorescence of 1 µM NCS-1 (excitation 280 nm, emission 290-410 nm), peptide added stepwise; 20 mM HEPES, 139 mM NaCl, 2 mM ATP, 5 mM EGTA, 5 mM nitrilotriacetic acid, pH 7.4, 1 µM free Ca2+; room temperature; logistic fit. The conditions noted are these: both partners purified.

T1 sequence (P62168 whole entry): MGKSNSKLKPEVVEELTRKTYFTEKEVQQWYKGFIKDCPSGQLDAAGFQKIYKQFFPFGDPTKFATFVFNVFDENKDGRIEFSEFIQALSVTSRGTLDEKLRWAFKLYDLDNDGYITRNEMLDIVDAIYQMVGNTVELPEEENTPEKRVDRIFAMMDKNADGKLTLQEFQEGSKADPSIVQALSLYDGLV

B1: D2 peptide, residues 428-443 of the human dopamine D2 receptor (peptide)
peptide: TFNIEFRKAFLKILHC
notes: dopamine D2 receptor, human, residues 428-443, cytoplasmic C-terminal tail; Dissolved first in a minimal amount of DMSO; also called D2 (428-443); dopamine D2 receptor C-terminus; source: synthetic peptide, bought: Peptide Protein Research Ltd
On to B1, for which the EC50 (commonly the concentration that produces a half-maximal response) was 14.3 µM and the stoichiometry N (as a rule, a count of units in the complex or per binding partner) worked out at 2 peptide per NCS-1.
